In patent publication JP2000154149A (dated 2000):
Residue numbers refer to the chain shown, from its start.

T1: ヒトFas抗原 on human lymphocyte cell line HPB-ALL (human, UniProt P25445 26-335)
T1 sequence (looked up): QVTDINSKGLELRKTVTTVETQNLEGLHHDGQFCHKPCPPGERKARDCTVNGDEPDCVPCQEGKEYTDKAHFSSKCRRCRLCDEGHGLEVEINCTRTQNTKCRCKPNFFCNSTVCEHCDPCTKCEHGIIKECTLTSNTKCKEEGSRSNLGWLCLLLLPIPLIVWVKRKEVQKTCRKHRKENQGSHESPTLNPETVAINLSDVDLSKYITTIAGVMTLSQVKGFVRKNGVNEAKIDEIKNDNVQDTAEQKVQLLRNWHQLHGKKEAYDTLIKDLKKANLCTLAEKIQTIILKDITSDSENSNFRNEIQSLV

B1: マウス抗ヒトFas抗体CH11(MBL社) (antibody, mouse IgM)
heavy: EVQLQQSGPELVKPGASVKISCKASGYTFTDYNMHWVKQSHGKSLEWIGYIYPYNGGTGYNQKFKSKATLTVDNSSSTAYMELRSLTSEDSAVYYCARSYYAMDYWGQGTSVTVSSESQSFPNVFPLVSCESPLSDKNLVAMGCLARDFLPSTISFTWNYQNNTEVIQGIRTFPTLRTGGKYLATSQVLLSPKSILEGSDEYLVCKIHYGGKNRDLHVPIPAVAEMNPNVNVFVPPRDGFSGPAPRKSKLICEATNFTPKPITVSWLKDGKLVESGFTTDPVTIENKGSTPQTYKVISTLTISEIDWLNLNVYTCRVDHRGLTFLKNVSSTCAASPSTDILTFTIPPSFADIFLSKSANLTCLVSNLATYETLNISWASQSGEPLETKIKIMESHPNGTFSAKGVASVCVEDWNNRKEFVCTVTHRDLPSPQKKFISKPNEVHKHPPAVYLLPPAREQLNLRESATVTCLVKGFSPADISVQWLQRGQLLPQEKYVTSAPMPEPGAPGFYFTHSILTVTEEEWNSGETYTCVVGHEALPHLVTERTVDKSTGKPTLYNVSLIMSDTGGTCY
light: DVVMTQSPLSLPVSLGDQASISCRSSKSLVHSNGNTYLHWYLQKPGQSPKLLIYKVSNRFSGVPDRFSGSGSGTDFTLKISRVEAEDLGVYFCSQSTHVPPAFGGGTKLEIKRADAAPTVSIFPPSSEQLTSGGASVVCFLNNFYPKDINVKWKIDGSERQNGVLNSWTDQDSKDSTYSMSSTLTLTKDEYERHNSYTCEATHKTSTSPIVKSFNRNEC
chain: DDEATILADNKCMCTRVTSRIIPSTEDPNEDIVERNIRIVVPLNNRENISDPTSPLRRNFVYHLSDVCKKCDPVEVELEDQVVTATQSNICNEDDGVPETCYMYDRNKCYTTMVPLRYHGETKMVQAALTPDSCYPD
B2: 抗ヒトFasヒト化抗体 [B] (expression product of pHμM1-1 and pHκKY2-58 in COS-7 cells; HμM heavy chain + VL-KY light chain) (antibody)
heavy: EVQLVQSGAEVKKPGASVKVSCKASGYTFTDYNMHWVKQAHGKSLEWMGYIYPYNGGTGYNQKFKSKATLTVDNSASTAYMELSSLRSEDTAVYYCARSYYAMDYWGQGTLVTVSSGSASAPTLFPLVSCENSPSDTSSVAVGCLAQDFLPDSITFSWKYKNNSDISSTRGFPSVLRGGKYAATSQVLLPSKDVMQGTDEHVVCKVQHPNGNKEKNVPLPVIAELPPKVSVFVPPRDGFFGNPRKSKLICQATGFSPRQIQVSWLREGKQVGSGVTTDQVQAEAKESGPTTYKVTSTLTIKESDWLSQSMFTCRVDHRGLTFQQNASSMCVPDQDTAIRVFAIPPSFASIFLTKSTKLTCLVTDLTTYDSVTISWTRQNGEAVKTHTNISESHPNATFSAVGEASICEDDWNSGERFTCTVTHTDLPSPLKQTISRPKGVALHRPDVYLLPPAREQLNLRESATITCLVTGFSPADVFVQWMQRGQPLSPEKYVTSAPMPEPQAPGRYFAHSILTVSEEEWNTGETYICVVAHEALPNRVTERTVDKSTGKPTLYNVSLVMSDTAGTCY
light: DVVMTQSPLSLPVTLGQPASISCRSSKSLVHSNGNTYLHWYLQKPGQSPKLLIYKVSNRFSGVPDRFSGSGSGTDFTLKISRVEAEDVGVYYCSQSTHVPPAFGQGTKVEIKRTVAAPSVFIFPPSDEQLKSGTASVVCLLNNFYPREAKVQWKVDNALQSGNSQESVTEQDSKDSTYSLSSTLTLSKADYEKHKVYACEVTHQGLSSPVTKSFNRGEC
B3: 抗ヒトFasヒト化抗体 [I] (expression product of pHμH5-1 and pHκRF2-52 in COS-7 cells; HμH heavy chain + VL-RF light chain) (antibody)
heavy: B2 heavy with K38R, H41P, K43Q, S44G
light: B2 light with K50R, Y92F
B4: 抗ヒトFasヒト化抗体 [D] (expression product of pHμM1-1 and pHκRY2-10 in COS-7 cells; HμM heavy chain + VL-RY light chain) (antibody)
heavy: B2 heavy
light: B2 light with K50R
B5: 抗ヒトFasヒト化抗体 [E] (expression product of pHμM1-1 and pHκRF2-52 in COS-7 cells; HμM heavy chain + VL-RF light chain) (antibody)
heavy: B2 heavy
light: B2 light with K50R, Y92F
B6: 抗ヒトFasヒト化抗体 [C] (expression product of pHμM1-1 and pHκKF2-19 in COS-7 cells; HμM heavy chain + VL-KF light chain) (antibody)
heavy: B2 heavy
light: B2 light with Y92F
B7: 抗ヒトFasヒト化抗体 [G] (expression product of pHμH5-1 and pHκKF2-19 in COS-7 cells; HμH heavy chain + VL-KF light chain) (antibody)
heavy: B2 heavy with K38R, H41P, K43Q, S44G
light: B2 light with Y92F

What follows are binders tested against T1, ヒトFas抗原 on human lymphocyte cell line … (assay: cell-based or functional assay).

First: B1
Second: B2
The “ED 50 (IgM concentration at which HPB-ALL cell survival is 50%), 細胞障害活性” value of the first is 9.7-fold higher: 10.7 ng/mL for the first, 1.1 ng/mL for the second.

Going from B3 to B4, the “ED 50 (IgM concentration at which HPB-ALL cell survival is 50%), 細胞障害活性” value falls from 3.4 ng/mL to 1.7 ng/mL (2-fold).

Going from B5 to B6, the “ED 50 (IgM concentration at which HPB-ALL cell survival is 50%), 細胞障害活性” value falls from 1.5 ng/mL to 1 ng/mL (1.5-fold).

With B7 the “ED 50 (IgM concentration at which HPB-ALL cell survival is 50%), 細胞障害活性” value was 2.4 ng/mL.
